Key:
Human BCMA (human) = Human BCMA (human) (UniProt Q02223); test: SPR, IgG on chip, huBCMA analyte
cynomolgus monkey BCMA = molecular target: T1, cynomolgus monkey BCMA (cynomolgus monkey, UniProt A0A2K5UD97 1-53); test: SPR, IgG on chip, cyBCMA analyte
T1 construct: Soluble analyte in SPR; construct not described; also called cyBCMA; Cyno BCMA
T1 sequence (A0A2K5UD97 entry or part of it): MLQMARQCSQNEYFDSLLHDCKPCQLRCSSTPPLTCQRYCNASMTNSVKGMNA

| Binder | Kd (Human BCMA (human)) [nM] | koff (Human BCMA (human)) [s⁻¹] | kon (Human BCMA (human)) [M⁻¹ s⁻¹] | Kd (cynomolgus monkey BCMA) [nM] | koff (cynomolgus monkey BCMA) [s⁻¹] | kon (cynomolgus monkey BCMA) [M⁻¹ s⁻¹] |
| --- | --- | --- | --- | --- | --- | --- |
| A02_Rd4_6nM_C07 (antibody, V domains shown, IgG) VH: EVQLLESGGGLVQPGGSLRLSCAASGFTFSSYAMNWVRQAPGKGLEWVSAIGGSGGSLPYADSVKGRFTISRDNSKNTLYLQMNSLRAEDTAVYYCARYWPMDSWGQGTLVTVSS VL: EIVLTQSPGTLSLSPGERATLSCRASQSVSPYYLAWYQQKPGQAPRLLMYDASIRATGIPDRFSGSGSGTDFTLTISRLEPEDFAVYYCQQYERWPLTFGQGTKVEIK | 0.128 | 0.000189 | 1.48e+06 | 1.14 | 0.000786 | 691000 |
| A02_Rd4_6nM_C08 (antibody, V domains shown, IgG) VH: EVQLLESGGGLVQPGGSLRLSCAASGFTFSSYAMNWVRQAPGKGLEWVSAILDSGGSTYYADSVKGRFTISRDNSKNTLYLQMNSLRAEDTAVYYCARYWPMSPWGQGTLVTVSS VL: EIVLTQSPGTLSLSPGERATLSCRASQSVSFLYLAWYQQKPGQAPRLLMYDASIRATGIPDRFSGSGSGTDFTLTISRLEPEDFAVYYCQQYGSWPLTFGQGTKVEIK | 0.188 | 0.000738 | 3.92e+06 | 5.07 | 0.0113 | 2.23e+06 |
| A02_Rd4_6nM_C10 (antibody, V domains shown, IgG) VH: EVQLLESGGGLVQPGGSLRLSCAASGFTFSSYAMNWVRQAPGKGLEWVSAISDSGGSCWYADSVKGRFTISRDNSKNTLYLQMNSLRAEDTAVYYCARYWPMTPWGQGTLVTVSS VL: EIVLTQSPGTLSLSPGERATLSCRASQSVEMSYLAWYQQKPGQAPRLLMYDASIRATGIPDRFSGSGSGTDFTLTISRLEPEDFAVYYCQQYAHWPLTFGQGTKVEIK | 0.07 | 0.000315 | 4.51e+06 | 0.472 | 0.000898 | 1.9e+06 |
| A02_Rd4_6nM_C19 (antibody, V domains shown, IgG) VH: EVQLLESGGGLVQPGGSLRLSCAASGFTFSSYAMNWVRQAPGKGLEWVSAISDSGGSRWYADSVKGRFTISRDNSKNTLYLQMNSLRAEDTAVYYCARYWPMSDWGQGTLVTVSS VL: EIVLTQSPGTLSLSPGERATLSCRASQSVSVLYLAWYQQKPGQAPRLLMYDASIRATGIPDRFSGSGSGTDFTLTISRLEPEDFAVYYCQQYLAWPLTFGQGTKVEIK | 0.049 | 0.000148 | 3e+06 | 0.26 | 0.000661 | 2.54e+06 |
| A02_Rd4_6nM_C22 (antibody, V domains shown, IgG) VH: EVQLLESGGGLVQPGGSLRLSCAASGFTFSSYAMNWVRQAPGKGLEWVSAVLDSGGSTYYADSVKGRFTISRDNSKNTLYLQMNSLRAEDTAVYYCARYWPMTPWGQGTLVTVSS VL: EIVLTQSPGTLSLSPGERATLSCRASQSVSSSYLAWYQQKPGQAPRLLMYDASIRATGIPDRFSGSGSGTDFTLTISRLEPEDFAVYYCQQYQVWPLTFGQGTKVEIK | 0.054 | 0.000182 | 3.38e+06 | 0.176 | 0.000324 | 1.84e+06 |
| A02_Rd4_6nM_C23 (antibody, V domains shown, IgG) VH: EVQLLESGGGLVQPGGSLRLSCAASGFTFSSYAMNWVRQAPGKGLEWVSAISDSGGSGWYADSVKGRFTISRDNSKNTLYLQMNSLRAEDTAVYYCARYWPMSLWGQGTLVTVSS VL: EIVLTQSPGTLSLSPGERATLSCRASQSVSVEYLAWYQQKPGQAPRLLMYDASIRATGIPDRFSGSGSGTDFTLTISRLEPEDFAVYYCQQYARWPLTFGQGTKVEIK | 0.021 | 0.000255 | 1.22e+07 | 0.157 | 0.000414 | 2.63e+06 |
| A02_Rd4_6nM_C25 (antibody, V domains shown, IgG) VH: EVQLLESGGGLVQPGGSLRLSCAASGFTFSSYAMNWVRQAPGKGLEWVSAISDSGGSRWYADSVKGRFTISRDNSKNTLYLQMNSLRAEDTAVYYCARYWPMTPWGQGTLVTVSS VL: EIVLTQSPGTLSLSPGERATLSCRASQSVSSSYLAWYQQKPGQAPRLLMYDASIRATGIPDRFSGSGSGTDFTLTISRLEPEDFAVYYCQQYLDWPLTFGQGTKVEIK | 0.065 | 0.00018 | 2.75e+06 | 0.22 | 0.00033 | 1.5e+06 |
| A02_Rd4_6nM_C26 (antibody, V domains shown, IgG) VH: EVQLLESGGGLVQPGGSLRLSCAASGFTFSSYAMNWVRQAPGKGLEWVSAISDSGGSTYYADSVKGRFTISRDNSKNTLYLQMNSLRAEDTAVYYCARYWPMSLWGQGTLVTVSS VL: EIVLTQSPGTLSLSPGERATLSCRASQSVSSLYLAWYQQKPGQAPRLLMYDASIRATGIPDRFSGSGSGTDFTLTISRLEPEDFAVYYCQQYQVWPLTFGQGTKVEIK | 0.033 | 0.000139 | 4.26e+06 | 0.203 | 0.000448 | 2.21e+06 |
| C01_Rd4_0.6nM_C03 (antibody, V domains shown, IgG) VH: EVQLLESGGGLVQPGGSLRLSCAASGFTFSSYPMSWVRQAPGKGLEWVSAIGGSGGSLPYADSVKGRFTISRDNSKNTLYLQMNSLRAEDTAVYYCARYWPMDSWGQGTLVTVSS VL: EIVLTQSPGTLSLSPGERATLSCRASCDVSSTYLAWYQQKPGQAPRLLIYDASSRAPGIPDRFSGSGSGTDFTLTISRLEPEDFAVYYCQQYMRSPLTFGQGTKVEIK | 0.964 | 0.015 | 1.55e+07 | 2.53 | 0.0119 | 4.72e+06 |
| C01_Rd4_0.6nM_C06 (antibody, V domains shown, IgG) VH: EVQLLESGGGLVQPGGSLRLSCAASGFTFSSYPMSWVRQAPGKGLEWVSAIGGSGGSLPYADSVKGRFTISRDNSKNTLYLQMNSLRAEDTAVYYCARYWPMDSWGQGTLVTVSS VL: EIVLTQSPGTLSLSPGERATLSCRASEAVPSTYLAWYQQKPGQAPRLLIYDASSRAPGIPDRFSGSGSGTDFTLTISRLEPEDFAVYYCQQYSAFPLTFGQGTKVEIK | 0.847 | 0.0154 | 1.82e+07 | 1.95 | 0.0121 | 6.22e+06 |
| C01_Rd4_0.6nM_C09 (antibody, V domains shown, IgG) VH: EVQLLESGGGLVQPGGSLRLSCAASGFTFSSYPMSWVRQAPGKGLEWVSAIGGSGGSLPYADSVKGRFTISRDNSKNTLYLQMNSLRAEDTAVYYCARYWPMDSWGQGTLVTVSS VL: EIVLTQSPGTLSLSPGERATLSCRASQSVSSLFLAWYQQKPGQAPRLLIYDASSRAPGIPDRFSGSGSGTDFTLTISRLEPEDFAVYYCQQYSAWPLTFGQGTKVEIK | 0.545 | 0.00825 | 1.51e+07 | 1.77 | 0.00936 | 5.28e+06 |
| C01_Rd4_0.6nM_C16 (antibody, V domains shown, IgG) VH: EVQLLESGGGLVQPGGSLRLSCAASGFTFSSYPMSWVRQAPGKGLEWVSAIGGSGGSLPYADSVKGRFTISRDNSKNTLYLQMNSLRAEDTAVYYCARYWPMDSWGQGTLVTVSS VL: EIVLTQSPGTLSLSPGERATLSCRASQSVSSTYLAWYQQKPGQAPRLLIYDASSRAPGIPDRFSGSGSGTDFTLTISRLEPEDFAVYYCQQYSSWPLTFGQGTKVEIK | 0.407 | 0.0063 | 1.55e+07 | 0.939 | 0.00464 | 4.95e+06 |
| C01_Rd4_0.6nM_C27 (antibody, V domains shown, IgG) VH: EVQLLESGGGLVQPGGSLRLSCAASGFTFSSYPMSWVRQAPGKGLEWVSAIGGSGGSLPYADSVKGRFTISRDNSKNTLYLQMNSLRAEDTAVYYCARYWPMDSWGQGTLVTVSS VL: EIVLTQSPGTLSLSPGERATLSCRASQSVSSTYLAWYQQKPGQAPRLLIYDASSRAPGIPDRFSGSGSGTDFTLTISRLEPEDFAVYYCQQYSRWPLTFGQGTKVEIK | 0.303 | 0.00374 | 1.23e+07 | 0.852 | 0.00285 | 3.34e+06 |
| C01_Rd4_6nM_C04 (antibody, V domains shown, IgG) VH: EVQLLESGGGLVQPGGSLRLSCAASGFTFSSYPMSWVRQAPGKGLEWVSAIGGSGGSLPYADSVKGRFTISRDNSKNTLYLQMNSLRAEDTAVYYCARYWPMDSWGQGTLVTVSS VL: EIVLTQSPGTLSLSPGERATLSCCSSQSVSSTYLAWYQQKPGQAPRLLIYDASSRAPGIPDRFSGSGSGTDFTLTISRLEPEDFAVYYCQQYSAFPLTFGQGTKVEIK | 2.13 | 0.0497 | 2.33e+07 | 5.16 | 0.0327 | 6.34e+06 |
| C01_Rd4_6nM_C09 (antibody, V domains shown, IgG) VH: EVQLLESGGGLVQPGGSLRLSCAASGFTFSSYPMSWVRQAPGKGLEWVSATVGSGGSIGYADSVKGRFTISRDNSKNTLYLQMNSLRAEDTAVYYCARYWPMDSWGQGTLVTVSS VL: EIVLTQSPGTLSLSPGERATLSCACSQSVSSTYLAWYQQKPGQAPRLLIYDASSRAPGIPDRFSGSGSGTDFTLTISRLEPEDFAVYYCQQYSAWPLTFGQGTKVEIK | 0.811 | 0.0128 | 1.58e+07 | 2.33 | 0.00868 | 3.73e+06 |
| C01_Rd4_6nM_C10 (antibody, V domains shown, IgG) VH: EVQLLESGGGLVQPGGSLRLSCAASGFTFSSYPMSWVRQAPGKGLEWVSAIGGSGGSLPYADSVKGRFTISRDNSKNTLYLQMNSLRAEDTAVYYCARYWPMDSWGQGTLVTVSS VL: EIVLTQSPGTLSLSPGERATLSCRASQSVSSVYLAWYQQKPGQAPRLLIYDASSRAPGIPDRFSGSGSGTDFTLTISRLEPEDFAVYYCQQYSTWPLTFGQGTKVEIK | 0.162 | 0.00212 | 1.31e+07 | 0.493 | 0.00219 | 4.44e+06 |
| C01_Rd4_6nM_C12 (antibody, V domains shown, IgG; also called PC1C12) VH: EVQLLESGGGLVQPGGSLRLSCAASGFTFSSYPMSWVRQAPGKGLEWVSAIGGSGGWSYYADSVKGRFTISRDNSKNTLYLQMNSLRAEDTAVYYCARYWPMDSWGQGTLVTVSS VL: EIVLTQSPGTLSLSPGERATLSCWLSQSVSSTYLAWYQQKPGQAPRLLIYDASSRAPGIPDRFSGSGSGTDFTLTISRLEPEDFAVYYCQQYSEWPLTFGQGTKVEIK | 0.535 | 0.00649 | 1.21e+07 | 0.82 | 0.0037 | 4.51e+06 |
